Patent US20230407373A1 (priority 2020, published 2023)
Read-outs that look alike come from different tables or passages of the source.

B1: HNANPA0 (protein, UniProt Q13151 1-305, looked up)
Heterogeneous nuclear …: MENSQLCKLFIGGLNVQTSESGLRGHFEAFGTLTDCVVVVNPQTKRSRCFGFVTYSNVEEADAAMAASPHAVDGNTVELKRAVSREDSARPGAHAKVKKLFVGGLKGDVAEGDLIEHFSQFGTVEKAEIIADKQSGKKRGFGFVYFQNHDAADKAAVVKFHPIQGHRVEVKKAVPKEDIYSGGGGGGSRSSRGGRGGRGRGGGRDQNGLSKGGGGGYNSYGGYGGGGGGGYNAYGGGGGGSSYGGSDYGNGFGGFGSYSQHQSSYGPMKSGGGGGGGGSSWGGRSNSGPYRGGYGGGGGYGGSSF
B2: HMGB1 (protein, UniProt P09429 1-215, looked up)
High mobility group protein B1: MGKGDPKKPRGKMSSYAFFVQTCREEHKKKHPDASVNFSEFSKKCSERWKTMSAKEKGKFEDMAKADKARYEREMKTYIPPKGETKKKFKDPNAPKRPPSAFFLFCSEYRPKIKGEHPGLSIGDVAKKLGEMWNNTAADDKQPYEKKAAKLKEKYEKDIAAYRAKGKPDAAKKGVVKAEKSKKKKEEEEDEEDEEDEEEEEDEEDEDEEEDDDDE
B3: KRT14 (protein, UniProt P02533 1-472, looked up)
Keratin, type I cytoskeletal …: MTTCSRQFTSSSSMKGSCGIGGGIGGGSSRISSVLAGGSCRAPSTYGGGLSVSSSRFSSGGACGLGGGYGGGFSSSSSSFGSGFGGGYGGGLGAGLGGGFGGGFAGGDGLLVGSEKVTMQNLNDRLASYLDKVRALEEANADLEVKIRDWYQRQRPAEIKDYSPYFKTIEDLRNKILTATVDNANVLLQIDNARLAADDFRTKYETELNLRMSVEADINGLRRVLDELTLARADLEMQIESLKEELAYLKKNHEEEMNALRGQVGGDVNVEMDAAPGVDLSRILNEMRDQYEKMAEKNRKDAEEWFFTKTEELNREVATNSELVQSGKSEISELRRTMQNLEIELQSQLSMKASLENSLEETKGRYCMQLAQIQEMIGSVEEQLAQLRCEMEQQNQEYKILLDVKTRLEQEIATYRRLLEGEDAHLSSSQFSSGSQSSRDVTSSSRQIRTKVMDVHDGKVVSTHEQVLRTKN
B4: LMNA (protein, UniProt P02545 1-661, looked up)
Prelamin-A/C: METPSQRRATRSGAQASSTPLSPTRITRLQEKEDLQELNDRLAVYIDRVRSLETENAGLRLRITESEEVVSREVSGIKAAYEAELGDARKTLDSVAKERARLQLELSKVREEFKELKARNTKKEGDLIAAQARLKDLEALLNSKEAALSTALSEKRTLEGELHDLRGQVAKLEAALGEAKKQLQDEMLRRVDAENRLQTMKEELDFQKNIYSEELRETKRRHETRLVEIDNGKQREFESRLADALQELRAQHEDQVEQYKKELEKTYSAKLDNARQSAERNSNLVGAAHEELQQSRIRIDSLSAQLSQLQKQLAAKEAKLRDLEDSLARERDTSRRLLAEKEREMAEMRARMQQQLDEYQELLDIKLALDMEIHAYRKLLEGEEERLRLSPSPTSQRSRGRASSHSSQTQGGGSVTKKRKLESTESRSSFSQHARTSGRVAVEEVDEEGKFVRLRNKSNEDQSMGNWQIKRQNGDDPLLTYRFPPKFTLKAGQVVTIWAAGAGATHSPPTDLVWKAQNTWGCGNSLRTALINSTGEEVAMRKLVRSVTVVEDDEDEDGDDLLHHHHGSHCSSSGDPAEYNLRSRTVLCGTCGQPADKASASGSGAQVGGPISSGSSASSVTVTRSYRSVGGSGGGSFGDNLVTRSYLLGNSSPRTQSPQNC
B5: MTDH (protein, UniProt Q86UE4 1-582, looked up)
Protein LYRIC: MAARSWQDELAQQAEEGSARLREMLSVGLGFLRTELGLDLGLEPKRYPGWVILVGTGALGLLLLFLLGYGWAAACAGARKKRRSPPRKREEAAAVPAAAPDDLALLKNLRSEEQKKKNRKKLSEKPKPNGRTVEVAEGEAVRTPQSVTAKQPPEIDKKNEKSKKNKKKSKSDAKAVQNSSRHDGKEVDEGAWETKISHREKRQQRKRDKVLTDSGSLDSTIPGIENTITVTTEQLTTASFPVGSKKNKGDSHLNVQVSNFKSGKGDSTLQVSSGLNENLTVNGGGWNEKSVKLSSQISAGEEKWNSVSPASAGKRKTEPSAWSQDTGDANTNGKDWGRSWSDRSIFSGIGSTAEPVSQSTTSDYQWDVSRNQPYIDDEWSGLNGLSSADPNSDWNAPAEEWGNWVDEERASLLKSQEPIPDDQKVSDDDKEKGEGALPTGKSKKKKKKKKKQGEDNSTAQDTEELEKEIREDLPVNTSKTRPKQEKAFSLKTISTSDPAEVLVKNSQPIKTLPPATSTEPSVILSKSDSDKSSSQVPPILQETDKSKSNTKQNSVPPSQTKSETSWESPKQIKKKKKARRET
B6: DRX30 (protein, UniProt Q7L2E3 1-1194, looked up)
ATP-dependent RNA helicase …: MFSLDSFRKDRAQHRQRQCKLPPPRLPPMCVNPTPGGTISRASRDLLKEFPQPKNLLNSVIGRALGISHAKDKLVYVHTNGPKKKKVTLHIKWPKSVEVEGYGSKKIDAERQAAAAACQLFKGWGLLGPRNELFDAAKYRVLADRFGSPADSWWRPEPTMPPTSWRQLNPESIRPGGPGGLSRSLGREEEEDEEEELEEGTIDVTDFLSMTQQDSHAPLRDSRGSSFEMTDDDSAIRALTQFPLPKNLLAKVIQIATSSSTAKNLMQFHTVGTKTKLSTLTLLWPCPMTFVAKGRRKAEAENKAAALACKKLKSLGLVDRNNEPLTHAMYNLASLRELGETQRRPCTIQVPEPILRKIETFLNHYPVESSWIAPELRLQSDDILPLGKDSGPLSDPITGKPYVPLLEAEEVRLSQSLLELWRRRGPVWQEAPQLPVDPHRDTILNAIEQHPVVVISGDTGCGKTTRIPQLLLERYVTEGRGARCNVIITQPRRISAVSVAQRVSHELGPSLRRNVGFQVRLESKPPSRGGALLFCTVGILLRKLQSNPSLEGVSHVIVDEVHERDVNTDFLLILLKGLQRLNPALRLVLMSATGDNERFSRYFGGCPVIKVPGFMYPVKEHYLEDILAKLGKHQYLHRHRHHESEDECALDLDLVTDLVLHIDARGEPGGILCFLPGWQEIKGVQQRLQEALGMHESKYLILPVHSNIPMMDQKAIFQQPPVGVRKIVLATNIAETSITINDIVHVVDSGLHKEERYDLKTKVSCLETVWVSRANVIQRRGRAGRCQSGFAYHLFPRSRLEKMVPFQVPEILRTPLENLVLQAKIHMPEKTAVEFLSKAVDSPNIKAVDEAVILLQEIGVLDQREYLTTLGQRLAHISTDPRLAKAIVLAAIFRCLHPLLVVVSCLTRDPFSSSLQNRAEVDKVKALLSHDSGSDHLAFVRAVAGWEEVLRWQDRSSRENYLEENLLYAPSLRFIHGLIKQFSENIYEAFLVGKPSDCTLASAQCNEYSEEEELVKGVLMAGLYPNLIQVRQGKVTRQGKFKPNSVTYRTKSGNILLHKSTINREATRLRSRWLTYFMAVKSNGSVFVRDSSQVHPLAVLLLTDGDVHIRDDGRRATISLSDSDLLRLEGDSRTVRLLKELRRALGRMVERSLRSELAALPPSVQEEHGQLLALLAELLRGPCGSFDVRKTADD
B7: KRT1 (protein, UniProt P04264 2-644, looked up)
Keratin, type II cytoskeletal …: SRQFSSRSGYRSGGGFSSGSAGIINYQRRTTSSSTRRSGGGGGRFSSCGGGGGSFGAGGGFGSRSLVNLGGSKSISISVARGGGRGSGFGGGYGGGGFGGGGFGGGGFGGGGIGGGGFGGFGSGGGGFGGGGFGGGGYGGGYGPVCPPGGIQEVTINQSLLQPLNVEIDPEIQKVKSREREQIKSLNNQFASFIDKVRFLEQQNQVLQTKWELLQQVDTSTRTHNLEPYFESFINNLRRRVDQLKSDQSRLDSELKNMQDMVEDYRNKYEDEINKRTNAENEFVTIKKDVDGAYMTKVDLQAKLDNLQQEIDFLTALYQAELSQMQTQISETNVILSMDNNRSLDLDSIIAEVKAQYEDIAQKSKAEAESLYQSKYEELQITAGRHGDSVRNSKIEISELNRVIQRLRSEIDNVKKQISNLQQSISDAEQRGENALKDAKNKLNDLEDALQQAKEDLARLLRDYQELMNTKLALDLEIATYRTLLEGEESRMSGECAPNVSVSVSTSHTTISGGGSRGGGGGGYGSGGSSYGSGGGSYGSGGGGGGGRGSYGSGGSSYGSGGGSYGSGGGGGGHGSYGSGSSSGGYRGGSGGGGGGSSGGRGSGGGSSGGSIGGRGSSSGGVKSSGGSSSVKFVSTTYSGVTR
B8: HNANPA3 (protein, UniProt P51991 1-378, looked up)
Heterogeneous nuclear …: MEVKPPPGRPQPDSGRRRRRRGEEGHDPKEPEQLRKLFIGGLSFETTDDSLREHFEKWGTLTDCVVMRDPQTKRSRGFGFVTYSCVEEVDAAMCARPHKVDGRVVEPKRAVSREDSVKPGAHLTVKKIFVGGIKEDTEEYNLRDYFEKYGKIETIEVMEDRQSGKKRGFAFVTFDDHDTVDKIVVQKYHTINGHNCEVKKALSKQEMQSAGSQRGRGGGSGNFMGRGGNFGGGGGNFGRGGNFGGRGGYGGGGGGSRGSYGGGDGGYNGFGGDGGNYGGGPGYSSRGGYGGGGPGYGNQGGGYGGGGGYDGYNEGGNFGGGNYGGGGNYNDFGNYSGQQQSNYGPMKGGSFGGRSSGSPYGGGYGSGGGSGGYGSRRF
B9: KRT9 (protein, UniProt P35527 1-623, looked up)
Keratin, type I cytoskeletal 9: MSCRQFSSSYLSRSGGGGGGGLGSGGSIRSSYSRFSSSGGGGGGGRFSSSSGYGGGSSRVCGRGGGGSFGYSYGGGSGGGFSASSLGGGFGGGSRGFGGASGGGYSSSGGFGGGFGGGSGGGFGGGYGSGFGGFGGFGGGAGGGDGGILTANEKSTMQELNSRLASYLDKVQALEEANNDLENKIQDWYDKKGPAAIQKNYSPYYNTIDDLKDQIVDLTVGNNKTLLDIDNTRMTLDDFRIKFEMEQNLRQGVDADINGLRQVLDNLTMEKSDLEMQYETLQEELMALKKNHKEEMSQLTGQNSGDVNVEINVAPGKDLTKTLNDMRQEYEQLIAKNRKDIENQYETQITQIEHEVSSSGQEVQSSAKEVTQLRHGVQELEIELQSQLSKKAALEKSLEDTKNRYCGQLQMIQEQISNLEAQITDVRQEIECQNQEYSLLLSIKMRLEKEIETYHNLLEGGQEDFESSGAGKIGLGGRGGSGGSYGRGSRGGSGGSYGGGGSGGGYGGGSGSRGGSGGSYGGGSGSGGGSGGGYGGGSGGGHSGGSGGGHSGGSGGNYGGGSGSGGGSGGGYGGGSGSRGGSGGSHGGGSGFGGESGGSYGGGEEASGSGGGYGGGSGKSSHS

System: HCoV-OC43 gRNA and sgRNA
Assay type: binding
Conditions: for target (unweighted spectral count): OC43 Probe II, infected cells; for target (unweighted spectral count) / target (unweighted spectral count, OC43 Probe II capture): tested against no-probe control; for target (unweighted spectral count, OC43 Probe II capture): FDR<10%

Molecule	target (unweighted spectral count) (12 hpi (type n_12_v))	target (unweighted spectral count) (24 hpi (type n_24_v))	target (unweighted spectral count, OC43 Probe II capture) (24 hpi, type n_24_v)	further results
B1	5	7		
B2	7	6		
B3			7	
B4	7	8		
B5			5	target (unweighted spectral count, OC43 Probe II capture) (36 hpi, type n_36_v): 6; target (unweighted spectral count, OC43 Probe II) (type n_48_v, 48 hpi, OC43 Probe II capture on infected cells): 6; background (unweighted spectral count, no-probe control) (type n_48_v, 48 hpi, no-probe control on infected cells): 1
B6		10		
B7			49	
B8	14			
B9		53		
